Experimental data taken from the supplement of paper PMC10567573.

B1: WEE1 (parent)
chain: FLGSSFSPVRCGGPGDASPRGCGA
B2: ZC3H15 (parent)
chain: ENLFTGEDLDELEEELNTLDLEE

Variants of: B1
Assay: protein stability index of a GFP-peptide fusion (GPS, HEK-293T) (PSI 1-6); higher = more stable
Details: c terminus: a fixed tail appended
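Further: lentivirally expressed fusions sorted by FACS into six bins by GFP to DsRed ratio, PSI derived from sequencing read proportions per bin multiplied by bin number.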

Variant | protein stability index
C22V | 1.73
C22E | 1.95
C22Q | 1.73
C22H | 2.94
C22T | 2.47
C22R | 2.27
C22M | 1.87
C22K | 2.17
C22L | 1.75
C22F | 2.48
C22Y | 2.1
C22P | 1.59
C22I | 1.58
C22W | 2.96
C22G | 2.13
C22D | 1.61
C22A | 1.88
C22S | 2.73
C22N | 1.8
P19R | 2.38
P19D | 2
P19I | 1.57
P19H | 1.25
P19A | 2.78
P19F | 2.62

Variant | protein stability index
P19Q | 1.57
P19E | 2.14
P19L | 2.31
P19C | 1.98
P19K | 1.93
P19N | 2.45
P19G | 2
P19T | 1.88
P19Y | 1.12
P19S | 1.8
P19M | 1.35
P19W | 2.52
P19V | 2.23
S18Q | 1.96
S18L | 2
S18C | 1.86
S18M | 1.62
S18A | 1.71
S18I | 1.75
S18Y | 1.65
S18F | 1.86
S18K | 2.07
S18W | 2.3
S18P | 2.89
S18V | 2.09

Variant | protein stability index
S18G | 1.98
S18H | 1.83
S18R | 1.68
S18N | 1.84
S18T | 1.42
S18D | 2.16
S18E | 2.15
G23Y | 1.4
G23S | 1.82
G23T | 1.7
G23P | 2.06
G23Q | 1.73
G23H | 3.02
G23A | 2.4
G23K | 1.71
G23E | 1.75
G23L | 1.09
G23V | 1.73
G23F | 2.37
G23N | 1.66
G23C | 2.64
G23I | 2.35
G23M | 1.63
G23R | 1.79
G23D | 2.22

Variant | protein stability index
A17L | 1.78
A17N | 1.99
A17W | 2.29
A17K | 1.53
A17M | 1.56
A17V | 1.47
A17E | 1.95
A17T | 1.4
A17R | 2.21
A17F | 1.54
A17H | 1.8
A17Q | 1.53
A17Y | 1.95
A17I | 1.87
A17P | 2.31
A17S | 1.39
A17G | 2.07
G21E | 2.06
G21M | 1.76
G21V | 1.74
G21K | 1.81
G21R | 1.96
G21A | 1.92
G21P | 1.91
G21C | 3.5

Variant | protein stability index
G21N | 1.55
G21H | 1.87
G21Q | 2.17
G21L | 1.95
G21Y | 1.69
G21S | 1.67
G21F | 1.64
G21W | 1.38
G21D | 1.64
G21T | 2.08
G21I | 1.97
R20P | 2.14
R20D | 2.17
R20E | 2.28
R20M | 1.57
R20T | 1.8
R20N | 2
R20I | 1.23
R20W | 2.19
R20H | 1.33
R20Q | 2.12
R20K | 1.62
R20L | 2.37
R20S | 1.55
R20V | 1.79

Variant | protein stability index
R20G | 1.36
R20A | 2.27
R20Y | 3.14
A24Y | 1.75
A24T | 2.01
A24F | 2.42
A24S | 1.58
A24L | 1.82
A24H | 1.52
A24W | 1.37
A24I | 1.42
A24D | 2.27
A24G | 1.75
A24N | 2.28
A24Q | 1.52
A24K | 2.17
A24C | 2.6
A24V | 1.6
A24P | 1.58
A24M | 1.02
A24R | 1.98
A24E | 1.88

Variants of: B2
Assay: as above
Details: c terminus: native

Variant | protein stability index
D10L | 4.28
D10H | 4.89
D10Q | 4.89
D10P | 5
D10G | 4.73
D10E | 5.05
D10V | 5.1
D10K | 4.35
D10I | 4.73
D10N | 5.33
D10A | 5.27
D10M | 3.89
D10R | 5.07
D10Y | 3.33
D10F | 4.12
D10W | 4.02
N2Q | 4.71
N2E | 4.39
N2V | 4.17
N2R | 4.94
N2I | 3.61
N2H | 4
N2M | 4.08
N2W | 3.12

Variant | protein stability index
N2C | 4.28
N2P | 4.24
N2K | 3.49
N2S | 4.6
N2Y | 4.78
N2T | 4.23
E7A | 4.55
E7S | 5
E7R | 4.69
E7L | 3.98
E7F | 4.42
E7P | 4.16
E7Y | 4.23
E7M | 4.69
E7D | 4.93
E7K | 4.01
E7H | 4.66
E7W | 4.54
E7I | 4.49
E7N | 4.68
E7Q | 4.11
E7V | 3.99
E7C | 4.38
F4R | 4.67

Variant | protein stability index
F4E | 4.31
F4G | 4.83
F4K | 3.66
F4C | 5.49
F4D | 5.08
F4H | 4.55
F4M | 4.5
F4W | 4.5
F4S | 5.13
F4Y | 4.6
F4N | 4.74
F4P | 5.03
F4I | 5.19
F4V | 3.57
F4A | 4.68
F4Q | 4.69
F4L | 4.58
L3Y | 3.6
L3D | 5.09
L3R | 4.71
L3N | 4.8
L3S | 5.2
L3I | 4.57
L3M | 5.09

Variant | protein stability index
L3H | 4.39
L3Q | 4.62
L3G | 4.81
L3C | 3.83
L3T | 4.71
L3W | 3.55
L3A | 4.1
L3P | 4.65
L3K | 4.06
L3E | 4.08
L3V | 4.6
L9N | 4.1
L9Y | 2.68
L9I | 5
L9A | 4.25
L9C | 4.43
L9W | 3.09
L9T | 4
L9R | 3.18
L9K | 2.38
L9V | 4.68
L9D | 3.87
L9P | 4.55
L9M | 4.69

Variant | protein stability index
L9G | 4.03
L9S | 4.49
L9E | 4.54
L9Q | 3.82
L9F | 3.48
L9H | 3.51
T5S | 4.32
T5E | 4.65
T5C | 5.08
T5F | 4.19
T5P | 4.66
T5V | 3.27
T5M | 4.69
T5H | 4.56
T5I | 4.05
T5G | 4.5
T5N | 4.41
T5Y | 4.25
T5W | 4.51
E11V | 4.1
E11M | 4.25
E11L | 4.3
E11H | 4.58
E11P | 4.06

Variant | protein stability index
E11F | 3.64
E11G | 5.13
E11Q | 4.89
E11I | 4.71
E11R | 4.98
E11T | 4.9
E11W | 4.67
E11K | 4.83
E11N | 4.58
E11A | 3.93
E11D | 4.58
E11S | 4.93
E11C | 4.52
G6H | 4.37
G6N | 4.83
G6V | 4.28
G6Q | 4.41
G6S | 4.88
G6D | 4.93
G6A | 4.82
G6I | 4.2
G6M | 4.68
G6Y | 4.58
G6T | 4.81

Variant | protein stability index
G6K | 4.79
G6R | 4.51
G6F | 4.3
G6L | 4.85
E1N | 4.12
E1F | 3.23
E1W | 2.89
E1I | 3.24
E1Q | 4.14
E1S | 4.42
E1C | 3.8
E1L | 4.16
E1P | 4.12
E1T | 4.11
E1D | 4.19
E1K | 3.59
E1M | 3.76
E1V | 4.25
E1A | 4.26
E1H | 3.66
E1Y | 3.58
L12F | 3.84
L12D | 5.07
L12G | 4.72

Variant | protein stability index
L12E | 4.79
L12A | 3.23
L12I | 4.14
L12C | 4.9
D8C | 4.99
D8R | 5.05
D8N | 3.93
D8I | 4.13
D8S | 5.14
D8W | 4.09
D8P | 4.24
D8T | 4.25
D8E | 4.58
D8K | 4.39
D8G | 5.03
D8V | 4.83
D8H | 4.66
D8Q | 4.58
D8L | 4.72
